{"source": "patent US20190360025A1", "key": {"[1]": {"molecular_target": "glial cell line derived neurotrophic factor (GDNF), R&D Systems 212-GD-010 (UniProt P39905)", "sequence (P39905 78-211 limits assumed)": "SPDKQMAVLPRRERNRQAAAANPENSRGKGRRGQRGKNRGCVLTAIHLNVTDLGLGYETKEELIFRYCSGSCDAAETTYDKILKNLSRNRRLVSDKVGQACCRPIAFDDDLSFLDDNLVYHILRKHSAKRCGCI", "assay": "t-PLA, buffer; GDNF 1.00E-13 M"}, "[2]": {"molecular_target": "glial cell line derived neurotrophic factor (GDNF), R&D Systems 212-GD-010 (UniProt P39905)", "assay": "c-PLA, buffer; GDNF 1.00E-14 M"}, "[3]": {"molecular_target": "glial cell line derived neurotrophic factor (GDNF), R&D Systems 212-GD-010 (UniProt P39905)", "assay": "c-PLA, buffer; GDNF 1.00E-09 M"}, "[4]": {"molecular_target": "glial cell line derived neurotrophic factor (GDNF), R&D Systems 212-GD-010 (UniProt P39905)", "assay": "SPR, isoaffinity graph"}, "[5]": {"molecular_target": "glial cell line derived neurotrophic factor (GDNF), R&D Systems 212-GD-010 (UniProt P39905)", "assay": "t-PLA, buffer; GDNF 1.00E-12 M"}, "[6]": {"molecular_target": "glial cell line derived neurotrophic factor (GDNF), R&D Systems 212-GD-010 (UniProt P39905)", "assay": "t-PLA, buffer; GDNF 1.00E-10 M"}, "[7]": {"molecular_target": "glial cell line derived neurotrophic factor (GDNF), R&D Systems 212-GD-010 (UniProt P39905)", "assay": "SPR, value from the software's off-rate, beyond the sensitivity range of the instrument"}, "[8]": {"molecular_target": "glial cell line derived neurotrophic factor (GDNF), R&D Systems 212-GD-010 (UniProt P39905)", "assay": "t-PLA, buffer; GDNF 1.00E-08 M"}, "[9]": {"molecular_target": "glial cell line derived neurotrophic factor (GDNF), R&D Systems 212-GD-010 (UniProt P39905)", "assay": "t-PLA, buffer; GDNF 1.00E-11 M"}, "[10]": {"molecular_target": "glial cell line derived neurotrophic factor (GDNF), R&D Systems 212-GD-010 (UniProt P39905)", "assay": "c-PLA, buffer; GDNF 1.00E-12 M"}, "[11]": {"molecular_target": "glial cell line derived neurotrophic factor (GDNF), R&D Systems 212-GD-010 (UniProt P39905)", "assay": "SPR (Biacore T200), 1:1 global fit"}, "[12]": {"molecular_target": "glial cell line derived neurotrophic factor (GDNF), R&D Systems 212-GD-010 (UniProt P39905)", "assay": "SPR, off-rate given by the software, beyond the sensitivity range of the instrument"}, "[13]": {"molecular_target": "glial cell line derived neurotrophic factor (GDNF), R&D Systems 212-GD-010 (UniProt P39905)", "assay": "c-PLA, buffer; GDNF 1.00E-10 M"}, "[14]": {"molecular_target": "glial cell line derived neurotrophic factor (GDNF), R&D Systems 212-GD-010 (UniProt P39905)", "assay": "c-PLA, buffer; GDNF 1.00E-11 M"}, "[15]": {"molecular_target": "glial cell line derived neurotrophic factor (GDNF), R&D Systems 212-GD-010 (UniProt P39905)", "assay": "c-PLA, buffer; GDNF 1.00E-13 M"}, "[16]": {"molecular_target": "glial cell line derived neurotrophic factor (GDNF), R&D Systems 212-GD-010 (UniProt P39905)", "assay": "BLI (Octet RED), antibody on protein G sensors, 1:1 global fit"}, "[17]": {"molecular_target": "glial cell line derived neurotrophic factor (GDNF), R&D Systems 212-GD-010 (UniProt P39905)", "assay": "t-PLA, buffer; GDNF 1.00E-14 M"}, "[18]": {"molecular_target": "glial cell line derived neurotrophic factor (GDNF), R&D Systems 212-GD-010 (UniProt P39905)", "assay": "c-PLA, buffer; GDNF 1.00E-08 M"}, "[19]": {"molecular_target": "glial cell line derived neurotrophic factor (GDNF), R&D Systems 212-GD-010 (UniProt P39905)", "assay": "SPR (Biacore T200), biotinylated antibody on CAP chip, 1:1 fit"}, "[20]": {"molecular_target": "glial cell line derived neurotrophic factor (GDNF), R&D Systems 212-GD-010 (UniProt P39905)", "assay": "t-PLA, buffer; GDNF 1.00E-09 M"}, "[21]": {"molecular_target": "insulin-like growth factor II (IGF-II), R&D Systems 292-G2-050 (UniProt P01344)", "sequence (P01344 25-91 limits assumed)": "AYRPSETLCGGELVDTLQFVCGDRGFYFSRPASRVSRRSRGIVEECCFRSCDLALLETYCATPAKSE", "assay": "c-PLA, buffer; IGF-II 1.00E-09 M"}, "[22]": {"molecular_target": "insulin-like growth factor II (IGF-II), R&D Systems 292-G2-050 (UniProt P01344)", "assay": "t-PLA, buffer; IGF-II 1.00E-08 M"}, "[23]": {"molecular_target": "insulin-like growth factor II (IGF-II), R&D Systems 292-G2-050 (UniProt P01344)", "assay": "c-PLA, buffer; IGF-II 1.00E-08 M"}, "[24]": {"molecular_target": "insulin-like growth factor II (IGF-II), R&D Systems 292-G2-050 (UniProt P01344)", "assay": "c-PLA, buffer; IGF-II 1.00E-07 M"}, "[25]": {"molecular_target": "insulin-like growth factor II (IGF-II), R&D Systems 292-G2-050 (UniProt P01344)", "assay": "t-PLA, buffer; IGF-II 1.00E-11 M"}, "[26]": {"molecular_target": "insulin-like growth factor II (IGF-II), R&D Systems 292-G2-050 (UniProt P01344)", "assay": "SPR, isoaffinity graph"}, "[27]": {"molecular_target": "insulin-like growth factor II (IGF-II), R&D Systems 292-G2-050 (UniProt P01344)", "assay": "t-PLA, buffer; IGF-II 1.00E-07 M"}, "[28]": {"molecular_target": "insulin-like growth factor II (IGF-II), R&D Systems 292-G2-050 (UniProt P01344)", "assay": "t-PLA, buffer; IGF-II 1.00E-06 M"}, "[29]": {"molecular_target": "insulin-like growth factor II (IGF-II), R&D Systems 292-G2-050 (UniProt P01344)", "assay": "SPR (Biacore T200), 1:1 global fit"}, "[30]": {"molecular_target": "insulin-like growth factor II (IGF-II), R&D Systems 292-G2-050 (UniProt P01344)", "assay": "c-PLA, buffer; IGF-II 1.00E-06 M"}, "[31]": {"molecular_target": "insulin-like growth factor II (IGF-II), R&D Systems 292-G2-050 (UniProt P01344)", "assay": "c-PLA, buffer; IGF-II 1.00E-11 M"}, "[32]": {"molecular_target": "insulin-like growth factor II (IGF-II), R&D Systems 292-G2-050 (UniProt P01344)", "assay": "t-PLA, buffer; IGF-II 1.00E-10 M"}, "[33]": {"molecular_target": "insulin-like growth factor II (IGF-II), R&D Systems 292-G2-050 (UniProt P01344)", "assay": "t-PLA, buffer; IGF-II 1.00E-09 M"}, "[34]": {"molecular_target": "insulin-like growth factor II (IGF-II), R&D Systems 292-G2-050 (UniProt P01344)", "assay": "c-PLA, buffer; IGF-II 1.00E-10 M"}, "[35]": {"molecular_target": "insulin-like growth factor II (IGF-II), R&D Systems 292-G2-050 (UniProt P01344)", "assay": "BLI (Octet RED), antibody on protein G sensors, 1:1 global fit"}, "[36]": {"molecular_target": "insulin-like growth factor II (IGF-II), R&D Systems 292-G2-050 (UniProt P01344)", "assay": "SPR (Biacore T200), biotinylated antibody on CAP chip, 1:1 fit"}}, "data": [{"substance": "affinity-purified polyclonal anti-GDNF antibody (R&D Systems AF-212-NA)", "values": [{"measurement": "Counts", "setting": "[1]", "value": "7.19e+06"}, {"measurement": "SBR", "setting": "[1]", "value": 11}, {"measurement": "Counts", "setting": "[2]", "value": 17}, {"measurement": "SBR", "setting": "[2]", "value": 1.1}, {"measurement": "Counts", "setting": "[3]", "value": 427000}, {"measurement": "SBR", "setting": "[3]", "value": 28300}, {"measurement": "Kd", "setting": "[4]", "value": "< 0.005", "unit": "nM"}, {"measurement": "Counts", "setting": "[5]", "value": "6.17e+06"}, {"measurement": "SBR", "setting": "[5]", "value": 9.1}, {"measurement": "Counts", "setting": "[6]", "value": "6.04e+08"}, {"measurement": "SBR", "setting": "[6]", "value": 896}, {"measurement": "Kd", "setting": "[7]", "value": 0.000173, "unit": "nM"}, {"measurement": "Counts", "setting": "[8]", "value": "1.02e+09"}, {"measurement": "SBR", "setting": "[8]", "value": 1520}, {"measurement": "Counts", "setting": "[9]", "value": "6.06e+07"}, {"measurement": "SBR", "setting": "[9]", "value": 90}, {"measurement": "Counts", "setting": "[10]", "value": 283}, {"measurement": "SBR", "setting": "[10]", "value": 19}, {"measurement": "Kd", "setting": "[11]", "value": "< 0.00071", "unit": "nM"}, {"measurement": "koff", "setting": "[11]", "value": "< 1e-05", "unit": "s⁻¹"}, {"measurement": "kon", "setting": "[11]", "value": "1.35e+07", "unit": "M⁻¹ s⁻¹"}, {"measurement": "koff", "setting": "[12]", "value": "2.34e-06", "unit": "s⁻¹"}, {"measurement": "Counts", "setting": "[13]", "value": 59400}, {"measurement": "SBR", "setting": "[13]", "value": 3930}, {"measurement": "Counts", "setting": "[14]", "value": 3340}, {"measurement": "SBR", "setting": "[14]", "value": 221}, {"measurement": "Counts", "setting": "[15]", "value": 172}, {"measurement": "SBR", "setting": "[15]", "value": 11}, {"measurement": "Kd", "setting": "[16]", "value": "< 0.00254", "unit": "nM"}, {"measurement": "koff", "setting": "[16]", "value": "< 1e-06", "unit": "s⁻¹"}, {"measurement": "kon", "setting": "[16]", "value": 393000, "unit": "M⁻¹ s⁻¹"}, {"measurement": "Counts", "setting": "[17]", "value": "1.92e+06"}, {"measurement": "SBR", "setting": "[17]", "value": 2.8}, {"measurement": "Counts", "setting": "[18]", "value": 214000}, {"measurement": "SBR", "setting": "[18]", "value": 14200}, {"measurement": "Kd", "setting": "[19]", "value": "< 0.00071", "unit": "nM"}, {"measurement": "koff", "setting": "[19]", "value": "< 1e-05", "unit": "s⁻¹"}, {"measurement": "kon", "setting": "[19]", "value": "1.4e+07", "unit": "M⁻¹ s⁻¹"}, {"measurement": "Counts", "setting": "[20]", "value": "2.24e+09"}, {"measurement": "SBR", "setting": "[20]", "value": 3320}]}, {"substance": "affinity-purified polyclonal anti-IGF-II antibody (R&D Systems AF-292-NA)", "values": [{"measurement": "Counts", "setting": "[21]", "value": 527}, {"measurement": "SBR", "setting": "[21]", "value": 2.4}, {"measurement": "Counts", "setting": "[22]", "value": "1.75e+07"}, {"measurement": "SBR", "setting": "[22]", "value": 24}, {"measurement": "Counts", "setting": "[23]", "value": 12200}, {"measurement": "SBR", "setting": "[23]", "value": 56}, {"measurement": "Counts", "setting": "[24]", "value": 50300}, {"measurement": "SBR", "setting": "[24]", "value": 230}, {"measurement": "Counts", "setting": "[25]", "value": 400000}, {"measurement": "SBR", "setting": "[25]", "value": 0.5}, {"measurement": "Kd", "setting": "[26]", "value": "> 0.05", "unit": "nM"}, {"measurement": "Counts", "setting": "[27]", "value": "5.89e+07"}, {"measurement": "SBR", "setting": "[27]", "value": 81}, {"measurement": "Counts", "setting": "[28]", "value": "4.77e+07"}, {"measurement": "SBR", "setting": "[28]", "value": 65}, {"measurement": "Kd", "setting": "[29]", "value": 0.0511, "unit": "nM"}, {"measurement": "koff", "setting": "[29]", "value": "2.49e-05", "unit": "s⁻¹"}, {"measurement": "kon", "setting": "[29]", "value": 486000, "unit": "M⁻¹ s⁻¹"}, {"measurement": "Counts", "setting": "[30]", "value": 49700}, {"measurement": "SBR", "setting": "[30]", "value": 227}, {"measurement": "Counts", "setting": "[31]", "value": 171}, {"measurement": "SBR", "setting": "[31]", "value": 0.8}, {"measurement": "Counts", "setting": "[32]", "value": 145000}, {"measurement": "SBR", "setting": "[32]", "value": 0.2}, {"measurement": "Counts", "setting": "[33]", "value": 641000}, {"measurement": "SBR", "setting": "[33]", "value": 0.9}, {"measurement": "Counts", "setting": "[34]", "value": 215}, {"measurement": "SBR", "setting": "[34]", "value": 1}, {"measurement": "Kd", "setting": "[35]", "value": 1.17, "unit": "nM"}, {"measurement": "koff", "setting": "[35]", "value": 0.000321, "unit": "s⁻¹"}, {"measurement": "kon", "setting": "[35]", "value": 274000, "unit": "M⁻¹ s⁻¹"}, {"measurement": "Kd", "setting": "[36]", "value": 0.051, "unit": "nM"}, {"measurement": "koff", "setting": "[36]", "value": "2.5e-05", "unit": "s⁻¹"}, {"measurement": "kon", "setting": "[36]", "value": 490000, "unit": "M⁻¹ s⁻¹"}]}]}
